Legend:
Details in all cases: protein: recombinant; tags: untagged; copies: 1;1;1
[1] = molecular target: T1, RPA heterotrimer (RPA1-RPA2-RPA3), WT (Homo sapiens, UniProt P27694;P15927;P35244 1-616;1-270;1-121); assay: fluorescence microscopy, co-partitioning into RPA droplets; equimolar; co-assembly, indirect evidence of binding; Droplet assay buffer and temperature not in material; protein stored in diluted Sorensen phosphate buffer (43.4 mM Na2HPO4, 6.6 mM KH2PO4) pH 7.6, 150 mM KCl, 25 uM EDTA, 1 mM DTT
T1 sequence (P27694 whole entry, chain 1 of 3): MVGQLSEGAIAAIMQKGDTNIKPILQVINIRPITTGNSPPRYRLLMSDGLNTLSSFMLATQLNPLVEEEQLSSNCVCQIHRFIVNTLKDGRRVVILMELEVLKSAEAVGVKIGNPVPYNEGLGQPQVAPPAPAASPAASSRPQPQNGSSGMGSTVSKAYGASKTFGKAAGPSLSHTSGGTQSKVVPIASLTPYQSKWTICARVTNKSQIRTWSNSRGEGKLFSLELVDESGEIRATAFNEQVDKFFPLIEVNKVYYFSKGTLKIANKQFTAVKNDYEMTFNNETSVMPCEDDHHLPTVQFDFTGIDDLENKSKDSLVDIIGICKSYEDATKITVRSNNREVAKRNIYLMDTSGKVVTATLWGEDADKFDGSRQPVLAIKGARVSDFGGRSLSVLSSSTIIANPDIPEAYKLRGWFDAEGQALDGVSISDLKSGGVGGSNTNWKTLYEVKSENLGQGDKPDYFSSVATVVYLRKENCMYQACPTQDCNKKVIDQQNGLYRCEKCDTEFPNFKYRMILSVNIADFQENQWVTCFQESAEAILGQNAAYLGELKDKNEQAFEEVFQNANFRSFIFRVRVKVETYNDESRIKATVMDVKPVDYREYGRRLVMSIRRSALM
T1 sequence (P15927 whole entry, chain 2 of 3): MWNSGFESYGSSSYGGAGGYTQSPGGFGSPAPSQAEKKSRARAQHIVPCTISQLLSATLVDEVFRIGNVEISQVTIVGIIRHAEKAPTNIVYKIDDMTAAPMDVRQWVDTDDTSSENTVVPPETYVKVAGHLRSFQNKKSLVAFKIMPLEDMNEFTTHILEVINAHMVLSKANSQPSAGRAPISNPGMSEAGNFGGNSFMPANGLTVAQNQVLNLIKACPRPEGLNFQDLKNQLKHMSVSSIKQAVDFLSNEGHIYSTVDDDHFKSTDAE
T1 sequence (P35244 whole entry, chain 3 of 3): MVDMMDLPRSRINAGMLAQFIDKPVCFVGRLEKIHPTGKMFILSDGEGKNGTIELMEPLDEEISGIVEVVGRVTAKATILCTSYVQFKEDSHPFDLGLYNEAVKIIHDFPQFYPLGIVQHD

[2] = molecular target: T1, RPA heterotrimer (RPA1-RPA2-RPA3), WT; assay: fluorescence microscopy, co-partitioning into RPA droplets; equimolar; Droplet assay buffer and temperature not in material; protein stored in diluted Sorensen phosphate buffer (43.4 mM Na2HPO4, 6.6 mM KH2PO4) pH 7.6, 150 mM KCl, 25 uM EDTA, 1 mM DTT
[3] = molecular target: T1, RPA heterotrimer (RPA1-RPA2-RPA3), WT; assay: fluorescence microscopy, co-partitioning into RPA droplets; equimolar; not enriched in droplets; Droplet assay buffer and temperature not in material; protein stored in diluted Sorensen phosphate buffer (43.4 mM Na2HPO4, 6.6 mM KH2PO4) pH 7.6, 150 mM KCl, 25 uM EDTA, 1 mM DTT

## AATTGTTATCCGCTCAC (ssDNA) [FAM-17nt ssDNA]
[1]
  binding result: binds

## ATGTGGAACAGTGGATTCGAAAGCTATGGCAGCGACGACT (ssDNA) [Cy3-40nt ssDNA]
[2]
  binding result: binds

## ATGTGGAACAGTGGATTCGAAAGCTATGGCAGCGACGACT (ssDNA) [FAM-40nt ssDNA]
[2]
  binding result: binds

## AGUCGUCGCUGCCAUAGCUUUCGAAUCCACUGUUCCACAU (ssRNA) [Cy3-40nt ssRNA]
[3]
  binding result: no binding

Source: PMC10113159
